Experimental data as given in patent US20140099312A1.

Legend:
[1] = target: Chimeric protein #1 (mPro-hCat-mC-term-mmh) (mouse; human) (UniProt Q80W65); test: ELISA, coated mAb, 1.2 nM antigen
[2] = target: Chimeric protein #2 (hPro-mCat-mC-term-mmh) (human; mouse) (UniProt Q80W65); test: ELISA, coated mAb, 1.2 nM antigen
mouse PCSK9-mmh (mouse) = mouse PCSK9-mmh (mouse) (UniProt Q80W65); test: ELISA, coated mAb, 1.2 nM antigen
[3] = target: Human PCSK9-myc-myc-his (human) (UniProt Q8NBP7); test: SPR, mAb captured on anti-mouse IgG, 25C
[4] = target: Human PCSK9-myc-myc-his (human) (UniProt Q8NBP7); test: SPR, mAb captured on anti-mouse IgG, 37C
[5] = target: Chimeric protein #3 (mPro-mCat-hC-term-mmh) (mouse; human); test: ELISA, coated mAb, 1.2 nM antigen (++ OD>1.0; + OD 0.4-1.0)
[6] = target: Human PCSK9-myc-myc-his (human) (UniProt Q8NBP7); test: as above
[7] = target: hPCSK9(D374Y)-mmh (human) (UniProt Q8NBP7); test: as above

Row | Binder | OD [1] | OD [2] | OD (mouse PCSK9-mmh (mouse)) | Kd [3] | T1/2 [3] | Kd [4] | T1/2 [4] | OD [5] | OD [6] | OD [7]
1 | H1M495 (antibody, from a related filing, V domains shown) VH: EVQLVESGGGLVQPGRSLRLSCAASGFTFDDYAMHWVRQAPGKGLEWVSGINWNSGSIGYADSVKGRFTISRDNAKHSLYLQMNSLRPEDTALYYCVKEVTTGYYYGMDVWGQGTTVTVSS VL: DIQLTQSPSFLSASVGDRVTITCWASQGISSYLAWYQKKPGKAPNLLIYDASTLQSGVPSRFSGSGSGTEFTLTLSSLQPEDFATYYCQQLNIYPFTFGPGTKVDIK | < 0.4 od | < 0.4 od | < 0.4 od | 0.44 nM | 222 min | 7.5 nM | 19 min | > 1 od | > 1 od | > 1 od
2 | H1M498 (antibody, from a related filing, V domains shown) VH: EVQLVESGGGLVKPGGSLRLSCAASGFTFSSYSMDWVRQAPGKGLEWVSSISSSSSYIYYADSVKGRFTISRDTAKNSLYLQMNSLRDEDTAVYYCAREGSSRLFDYWGQGTLVTVSS VL: DIQMTQSPSTLSASVGDRVTITCRASQSISSWLAWYQQRPGKAPKLLIYKASSLEGGVPSRFSGSGSGTEFTLTISSLQPEDFATYYCQQYNSYWYTFGQGTKLEIK | < 0.4 od | < 0.4 od | < 0.4 od | 6.4 nM | 30 min | 7.5 nM | 14 min | 0.4 to 1 od | > 1 od | > 1 od
